Test results taken from the Immune Epitope Database (IEDB).
Values belong to the sequence of their own block, whether it stands above or below them.

How the values were obtained:
Test in all cases: IEDB peptide-MHC binding, purified MHC/competitive/radioactivity; filed as Kd, often an IC50 or EC50 that approximates it; ≥ and ≤ were set here for values at or beyond the usual limits of such assays
HLA-A*03:01 = target: HLA-A*03:01
HLA-A*11:01 = target: HLA-A*11:01
HLA-A*31:01 = target: HLA-A*31:01
HLA-A*33:01 = target: HLA-A*33:01
HLA-A*68:01 = target: HLA-A*68:01
[1] = source organism: SARS coronavirus Tor2
[2] = source organism: Vaccinia virus WR
[3] = source organism: Dengue virus 1 Brazil/97-11/1997
[4] = source organism: Dengue virus 2 Jamaica/1409/1983
[5] = source organism: Dengue virus 3 Martinique/1243/1999
[6] = source organism: Dengue virus 4 Philippines/H241/1956
[7] = source organism: Lassa virus Josiah
[8] = source organism: Vaccinia virus Copenhagen
[9] = source organism: Mammarenavirus machupoense
[10] = source organism: Lymphocytic choriomeningitis virus (strain Armstrong)
[11] = source organism: Dengue virus 1 Singapore/S275/1990
[12] = source organism: Mammarenavirus brazilense

Sequence: TTTSTALGK
- Kd (HLA-A*03:01; [1]): 718 nM
- Kd (HLA-A*11:01; [1]): 31.8 nM
- Kd (HLA-A*31:01; [1]): 1080 nM
- Kd (HLA-A*33:01; [1]): ≥ 77700 nM
- Kd (HLA-A*68:01; [1]): 28 nM

Sequence: LMYALEPRK
- Kd (HLA-A*03:01; [2]): 5.59 nM
- Kd (HLA-A*11:01; [2]): 53.9 nM
- Kd (HLA-A*31:01; [2]): 5640 nM
- Kd (HLA-A*33:01; [2]): ≥ 25900 nM
- Kd (HLA-A*68:01; [2]): 808 nM

Sequence: SYVMCTGSFK
- Kd (HLA-A*03:01; [3]): 111 nM
- Kd (HLA-A*33:01; [3]): 17.7 nM

Sequence: RMLINRFTMK
- Kd (HLA-A*03:01; [4]): 6.19 nM
- Kd (HLA-A*11:01; [4]): 334 nM

Sequence: LVTPSMTMR
- Kd (HLA-A*31:01; [5]): 343 nM

Sequence: TSTGNYNYK
- Kd (HLA-A*03:01; [1]): 1460 nM
- Kd (HLA-A*11:01; [1]): 21.1 nM
- Kd (HLA-A*31:01; [1]): 151 nM
- Kd (HLA-A*33:01; [1]): 12200 nM
- Kd (HLA-A*68:01; [1]): 37.2 nM

Sequence: ATEGALNTPK
- Kd (HLA-A*03:01; [1]): 82 nM
- Kd (HLA-A*11:01; [1]): 4.73 nM
- Kd (HLA-A*31:01; [1]): 2820 nM
- Kd (HLA-A*33:01; [1]): ≥ 44600 nM
- Kd (HLA-A*68:01; [1]): 220 nM

Sequence: WSYYCGGLK
- Kd (HLA-A*03:01; [4]): 1.28 nM

Sequence: MTIIGRRLQR
- Kd (HLA-A*31:01; [6]): 15.1 nM
- Kd (HLA-A*33:01; [6]): 32.7 nM
- Kd (HLA-A*68:01; [6]): 10.5 nM

Sequence: GFPFNKWGK
- Kd (HLA-A*03:01; [1]): ≥ 20800 nM
- Kd (HLA-A*11:01; [1]): 655 nM
- Kd (HLA-A*31:01; [1]): 721 nM
- Kd (HLA-A*33:01; [1]): 17700 nM
- Kd (HLA-A*68:01; [1]): 17400 nM

Sequence: AMCTNTFVLK
- Kd (HLA-A*03:01; [5]): 20.3 nM
- Kd (HLA-A*11:01; [5]): 20.9 nM

Sequence: VTFLLLCGR
- Kd (HLA-A*03:01; [7]): 3060 nM
- Kd (HLA-A*11:01; [7]): 18.2 nM
- Kd (HLA-A*31:01; [7]): 18.4 nM
- Kd (HLA-A*33:01; [7]): 132 nM
- Kd (HLA-A*68:01; [7]): 13.8 nM

Sequence: STQSVLCVKK
- Kd (HLA-A*03:01; [2]): 118 nM
- Kd (HLA-A*11:01; [2]): 0.157 nM
- Kd (HLA-A*31:01; [2]): 180 nM
- Kd (HLA-A*68:01; [2]): 3.52 nM

Sequence: LMWNKQFIK
- Kd (HLA-A*03:01; [2]): 6.26 nM
- Kd (HLA-A*11:01; [2]): 2.57 nM
- Kd (HLA-A*31:01; [2]): 12.9 nM
- Kd (HLA-A*33:01; [2]): 31.8 nM
- Kd (HLA-A*68:01; [2]): 200 nM

Sequence: GAAVTLNRIK
- Kd (HLA-A*03:01; [2]): 1750 nM
- Kd (HLA-A*11:01; [2]): 1040 nM
- Kd (HLA-A*31:01; [2]): ≥ 40600 nM
- Kd (HLA-A*33:01; [2]): ≥ 70000 nM
- Kd (HLA-A*68:01; [2]): 8350 nM

Sequence: LSCAVHLIIY
- Kd (HLA-A*03:01; [2]): 10600 nM
- Kd (HLA-A*11:01; [2]): ≥ 61400 nM
- Kd (HLA-A*31:01; [2]): 5370 nM
- Kd (HLA-A*33:01; [2]): 3830 nM
- Kd (HLA-A*68:01; [2]): 361 nM

Sequence: MIRPQPMEHK
- Kd (HLA-A*03:01; [3]): 8.89 nM

Sequence: GVIDTMRIY
- Kd (HLA-A*03:01; [2]): 1680 nM
- Kd (HLA-A*11:01; [2]): 85.7 nM
- Kd (HLA-A*31:01; [2]): 991 nM
- Kd (HLA-A*33:01; [2]): 11400 nM
- Kd (HLA-A*68:01; [2]): 3020 nM

Sequence: KAGNILFWPY
- Kd (HLA-A*03:01; [2]): 248 nM
- Kd (HLA-A*11:01; [2]): 363 nM
- Kd (HLA-A*31:01; [2]): ≥ 22500 nM
- Kd (HLA-A*33:01; [2]): ≥ 70000 nM
- Kd (HLA-A*68:01; [2]): 14000 nM

Sequence: TAGPWHLGK
- Kd (HLA-A*11:01; [4]): 66.1 nM

Sequence: ITWIGMNSR
- Kd (HLA-A*31:01; [4]): 11.2 nM
- Kd (HLA-A*33:01; [4]): 35.4 nM

Sequence: FAYVMNIER
- Kd (HLA-A*03:01; [2]): 4340 nM
- Kd (HLA-A*11:01; [2]): 65.5 nM
- Kd (HLA-A*31:01; [2]): 37.2 nM
- Kd (HLA-A*33:01; [2]): 12.5 nM
- Kd (HLA-A*68:01; [2]): 0.38 nM

Sequence: EVYTQLCDHR
- Kd (HLA-A*68:01; [5]): 14.3 nM

Sequence: ILARRPTPK
- Kd (HLA-A*03:01; [8]): 1.31 nM
- Kd (HLA-A*11:01; [8]): 46 nM
- Kd (HLA-A*31:01; [8]): 1560 nM
- Kd (HLA-A*33:01; [8]): ≥ 67100 nM
- Kd (HLA-A*68:01; [8]): 1780 nM

Sequence: ALNDMGKVRK
- Kd (HLA-A*03:01; [4]): 36.5 nM

Sequence: EKFGHLCKYH
- Kd (HLA-A*03:01; [9]): ≥ 70000 nM
- Kd (HLA-A*11:01; [9]): ≥ 69700 nM
- Kd (HLA-A*31:01; [9]): ≥ 70000 nM
- Kd (HLA-A*33:01; [9]): ≥ 70000 nM
- Kd (HLA-A*68:01; [9]): ≥ 70100 nM

Sequence: GIFTTNIWLK
- Kd (HLA-A*03:01; [3]): 14.3 nM
- Kd (HLA-A*11:01; [3]): 12.5 nM

Sequence: VLLRKNGNK
- Kd (HLA-A*03:01; [1]): 42.2 nM
- Kd (HLA-A*11:01; [1]): 1660 nM
- Kd (HLA-A*31:01; [1]): 2360 nM
- Kd (HLA-A*33:01; [1]): 9640 nM
- Kd (HLA-A*68:01; [1]): ≥ 26100 nM

Sequence: IIDAKNDDWK
- Kd (HLA-A*03:01; [2]): 6380 nM
- Kd (HLA-A*11:01; [2]): 15900 nM
- Kd (HLA-A*31:01; [2]): ≥ 70000 nM
- Kd (HLA-A*33:01; [2]): ≥ 70000 nM
- Kd (HLA-A*68:01; [2]): 2270 nM

Sequence: SKFWYLEHAK
- Kd (HLA-A*03:01; [10]): 18800 nM
- Kd (HLA-A*11:01; [10]): 5190 nM
- Kd (HLA-A*31:01; [10]): 1010 nM
- Kd (HLA-A*33:01; [10]): 879 nM
- Kd (HLA-A*68:01; [10]): ≥ 30600 nM

Sequence: MALFQPANK
- Kd (HLA-A*11:01; source organism: Mammarenavirus juninense): 48 nM

Sequence: MTLDDLAIK
- Kd (HLA-A*03:01; [2]): 927 nM
- Kd (HLA-A*11:01; [2]): 37.1 nM
- Kd (HLA-A*31:01; [2]): 408 nM
- Kd (HLA-A*33:01; [2]): 2340 nM
- Kd (HLA-A*68:01; [2]): 39.8 nM

Sequence: MTATPPGSR
- Kd (HLA-A*68:01; [4]): 18.4 nM

Sequence: KAMLYIIRR
- Kd (HLA-A*03:01; [2]): 1200 nM
- Kd (HLA-A*11:01; [2]): 14.5 nM
- Kd (HLA-A*31:01; [2]): 0.319 nM
- Kd (HLA-A*33:01; [2]): 150 nM
- Kd (HLA-A*68:01; [2]): 19.8 nM

Sequence: ISNMLNIMNR
- Kd (HLA-A*31:01; [11]): ≥ 38100 nM
- Kd (HLA-A*33:01; [11]): 157 nM

Sequence: KSAAIDGEYR
- Kd (HLA-A*31:01; [3]): 4.04 nM
- Kd (HLA-A*68:01; [3]): 134 nM

Sequence: VLEIINDKGK
- Kd (HLA-A*03:01; [2]): 10100 nM
- Kd (HLA-A*11:01; [2]): 2520 nM
- Kd (HLA-A*31:01; [2]): ≥ 70000 nM
- Kd (HLA-A*33:01; [2]): ≥ 70000 nM
- Kd (HLA-A*68:01; [2]): ≥ 70200 nM

Sequence: TVKMGAFMY
- Kd (HLA-A*03:01; [2]): 523 nM
- Kd (HLA-A*11:01; [2]): 25.3 nM
- Kd (HLA-A*31:01; [2]): 3040 nM
- Kd (HLA-A*33:01; [2]): 8710 nM
- Kd (HLA-A*68:01; [2]): 48.9 nM

Sequence: TSLAIKNYY
- Kd (HLA-A*03:01; [2]): 18200 nM
- Kd (HLA-A*11:01; [2]): 294 nM
- Kd (HLA-A*31:01; [2]): 2260 nM
- Kd (HLA-A*33:01; [2]): ≥ 29300 nM
- Kd (HLA-A*68:01; [2]): 1670 nM

Sequence: QQFANVISK
- Kd (HLA-A*03:01; [2]): 55.6 nM
- Kd (HLA-A*11:01; [2]): 2.38 nM
- Kd (HLA-A*31:01; [2]): 1320 nM
- Kd (HLA-A*33:01; [2]): ≥ 28300 nM
- Kd (HLA-A*68:01; [2]): 710 nM

Sequence: TALAKCNLDH
- Kd (HLA-A*03:01; [12]): ≥ 70000 nM
- Kd (HLA-A*11:01; [12]): ≥ 69700 nM
- Kd (HLA-A*31:01; [12]): 878 nM
- Kd (HLA-A*33:01; [12]): ≥ 46900 nM
- Kd (HLA-A*68:01; [12]): ≥ 35100 nM

Sequence: SQLAKRFSK
- Kd (HLA-A*11:01; [3]): 49.9 nM

- Kd (HLA-A*03:01; source organism: Homo sapiens): 125 nM
- Kd (HLA-A*11:01; source organism: Homo sapiens): 90.6 nM
Sequence: VVGAGGVGK

Sequence: TAKEVALLR
- Kd (HLA-A*33:01; [6]): 17.3 nM
- Kd (HLA-A*68:01; [6]): 75.1 nM

Sequence: LVEYGTVVNK
- Kd (HLA-A*68:01; [2]): 212 nM

Sequence: SIMKNTTNTR
- Kd (HLA-A*31:01; [4]): 672 nM
- Kd (HLA-A*68:01; [4]): 139 nM

Sequence: TTILTPMLR
- Kd (HLA-A*11:01; [6]): 387 nM
- Kd (HLA-A*33:01; [6]): 36.4 nM
- Kd (HLA-A*68:01; [6]): 10.9 nM

Sequence: TIFAGHLKCR
- Kd (HLA-A*68:01; [3]): 16.9 nM
